PMC4821647

T1: Arid5a R128A (Mus musculus, UniProt Q3U108 1-590, R128A)
T1 sequence: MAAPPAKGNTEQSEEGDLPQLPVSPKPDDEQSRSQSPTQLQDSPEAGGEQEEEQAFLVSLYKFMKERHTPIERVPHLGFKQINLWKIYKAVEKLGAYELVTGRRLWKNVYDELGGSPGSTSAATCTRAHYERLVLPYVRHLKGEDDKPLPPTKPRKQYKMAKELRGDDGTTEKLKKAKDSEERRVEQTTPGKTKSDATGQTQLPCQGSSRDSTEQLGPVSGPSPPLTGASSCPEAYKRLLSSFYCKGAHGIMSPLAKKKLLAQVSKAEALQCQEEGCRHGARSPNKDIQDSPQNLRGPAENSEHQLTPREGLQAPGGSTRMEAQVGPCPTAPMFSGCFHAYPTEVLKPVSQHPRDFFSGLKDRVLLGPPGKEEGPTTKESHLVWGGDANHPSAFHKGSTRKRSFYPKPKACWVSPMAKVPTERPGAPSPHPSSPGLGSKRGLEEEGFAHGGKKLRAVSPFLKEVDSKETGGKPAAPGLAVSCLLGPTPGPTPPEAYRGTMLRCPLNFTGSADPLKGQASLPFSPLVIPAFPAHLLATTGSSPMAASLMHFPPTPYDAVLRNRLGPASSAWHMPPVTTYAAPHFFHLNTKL

T2: Arid5a (Mus musculus, UniProt Q3U108 1-590)
T2 sequence: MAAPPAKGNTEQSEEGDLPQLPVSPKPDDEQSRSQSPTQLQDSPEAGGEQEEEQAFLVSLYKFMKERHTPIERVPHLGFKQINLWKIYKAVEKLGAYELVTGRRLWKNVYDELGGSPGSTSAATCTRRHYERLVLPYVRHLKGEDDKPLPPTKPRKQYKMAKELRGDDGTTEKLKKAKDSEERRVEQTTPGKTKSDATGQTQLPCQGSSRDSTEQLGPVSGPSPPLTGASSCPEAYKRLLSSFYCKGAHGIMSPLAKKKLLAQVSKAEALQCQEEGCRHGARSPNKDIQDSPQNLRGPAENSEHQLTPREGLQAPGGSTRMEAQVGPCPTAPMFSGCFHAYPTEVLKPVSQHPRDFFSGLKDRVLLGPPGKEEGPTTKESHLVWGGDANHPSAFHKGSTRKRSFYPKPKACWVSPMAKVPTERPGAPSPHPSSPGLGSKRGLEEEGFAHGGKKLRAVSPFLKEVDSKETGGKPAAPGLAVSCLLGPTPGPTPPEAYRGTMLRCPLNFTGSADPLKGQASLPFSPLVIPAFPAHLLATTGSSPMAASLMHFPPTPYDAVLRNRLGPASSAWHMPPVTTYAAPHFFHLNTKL


What was measured:
Arid5a R128A = biological target: T1, Arid5a R128A; test: EMSA
Arid5a = biological target: T2, Arid5a; test: EMSA

Row | Binder | binding result (Arid5a R128A) | binding result (Arid5a)
1 | UGCAGUGGCUUGUGUUCUGGCCACUGCA (structured_RNA) [STAT3 3'UTR (1738-1765) stem-loop] | no binding | binds
2 | UGCACACCCUUGUGUUCUGGCCACUGCA (structured_RNA) [mutant stem-loop STAT3 3'UTR (1738-1765)] |  | no binding
